T1: TabHLH1 (Taraxacum antungense Kitag, UniProt A0A482LNV1 1-521)
T1 sequence: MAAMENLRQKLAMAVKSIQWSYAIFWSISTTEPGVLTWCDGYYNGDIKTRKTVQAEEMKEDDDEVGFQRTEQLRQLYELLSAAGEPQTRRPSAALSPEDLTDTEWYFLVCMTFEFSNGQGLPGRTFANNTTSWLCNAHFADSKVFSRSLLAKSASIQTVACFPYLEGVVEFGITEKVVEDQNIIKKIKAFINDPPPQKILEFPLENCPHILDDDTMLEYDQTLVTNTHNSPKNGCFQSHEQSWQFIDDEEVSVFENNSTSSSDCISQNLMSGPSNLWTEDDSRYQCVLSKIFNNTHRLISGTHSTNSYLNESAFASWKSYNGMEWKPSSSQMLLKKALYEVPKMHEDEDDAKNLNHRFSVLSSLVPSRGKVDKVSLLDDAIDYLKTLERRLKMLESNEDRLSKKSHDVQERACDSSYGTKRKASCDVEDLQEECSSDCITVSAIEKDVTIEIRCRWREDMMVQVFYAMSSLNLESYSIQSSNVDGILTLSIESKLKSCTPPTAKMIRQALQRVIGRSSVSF


Biological target: T1, TabHLH1
Assay: EMSA; unlabeled identical cold probe used as control; EMSA binding buffer (Beyotime, 10x stock), 25 °C, 30 min; salt and pH not stated
Settings: protein: recombinant; tags: GST (pGEX4T-1); chain copies: 2; label: 3' biotin on both strands; blunt

Row | Binder | binding result
1 | TaHQT2 promoter E-box probe (dsDNA) DNA 1: CGAACGGAGGAACATGTGTGCTCTGAAAAT DNA 2: ATTTTCAGAGCACACATGTTCCTCCGTTCG | binds
2 | Ta4CL promoter E-box probe (dsDNA) DNA 1: TGGCCAAAATCCCATGTGATTTCGGCCCAC DNA 2: GTGGGCCGAAATCACATGGGATTTTGGCCA | binds

From PMC8408231, “The basic helix-loop-helix transcription factor TabHLH1 increases chlorogenic acid and luteolin biosynthesis in Taraxacum antungense Kitag”
